Consider one molecule from US7629437 (University of California, dated 2009).

*: point of attachment. CH2Cl = ClC*

Targets include Human thrombin (human, UniProt P00734 328-622); Factor Xa; Human plasmin (human, UniProt P00747 97-810, limits assumed).
What all share (assay): cell-based or functional assay
Test [1] has as its target Recombinant human βII tryptase (human, singly N-glycosylated (non- and single-glycosylation forms observed)).
The target in test [2] is Recombinant human βI tryptase (human, UniProt Q15661 31-275, N-glycosylated (non-, single-, double- and hyper-glycosylation forms observed)).
Sequence of Recombinant human βI tryptase (Q15661 31-275): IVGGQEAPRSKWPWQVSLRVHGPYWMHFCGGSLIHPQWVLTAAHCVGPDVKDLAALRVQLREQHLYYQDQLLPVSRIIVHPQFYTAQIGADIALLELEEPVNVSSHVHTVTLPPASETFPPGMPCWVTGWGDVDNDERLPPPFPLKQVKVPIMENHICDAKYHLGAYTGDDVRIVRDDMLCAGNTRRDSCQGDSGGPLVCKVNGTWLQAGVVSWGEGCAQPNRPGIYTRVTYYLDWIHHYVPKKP
The target of test [3] is tissue-type plasminogen activator (UniProt P00750 36-562, limits assumed).
Sequence of tissue-type plasminogen activator (P00750 36-562 limits assumed): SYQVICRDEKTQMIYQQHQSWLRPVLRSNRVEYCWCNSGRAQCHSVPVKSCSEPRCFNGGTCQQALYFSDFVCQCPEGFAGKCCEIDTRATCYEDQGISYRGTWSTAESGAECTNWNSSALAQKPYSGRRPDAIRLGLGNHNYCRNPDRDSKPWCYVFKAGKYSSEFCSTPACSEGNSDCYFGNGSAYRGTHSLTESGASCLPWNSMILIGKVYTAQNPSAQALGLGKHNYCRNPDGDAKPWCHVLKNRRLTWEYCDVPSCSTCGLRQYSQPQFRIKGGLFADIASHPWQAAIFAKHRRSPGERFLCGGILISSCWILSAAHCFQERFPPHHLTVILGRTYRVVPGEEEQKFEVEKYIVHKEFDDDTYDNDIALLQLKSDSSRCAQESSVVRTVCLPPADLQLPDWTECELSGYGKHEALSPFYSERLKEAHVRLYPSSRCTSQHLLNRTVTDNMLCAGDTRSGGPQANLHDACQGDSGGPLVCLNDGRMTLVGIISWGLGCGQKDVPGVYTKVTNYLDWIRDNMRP
The target of test [4] is urokinase plasminogen activator (UniProt P00749 21-431, limits assumed).

Sequence of Recombinant human βII tryptase (human, singly N-glycosylated (non- and single-glycosylation forms observed)) (chain, as listed by the source): as the sequence (Q15661 31-275) above, with N102K counted along it
Sequence of Human plasmin (P00747 97-810 limits assumed): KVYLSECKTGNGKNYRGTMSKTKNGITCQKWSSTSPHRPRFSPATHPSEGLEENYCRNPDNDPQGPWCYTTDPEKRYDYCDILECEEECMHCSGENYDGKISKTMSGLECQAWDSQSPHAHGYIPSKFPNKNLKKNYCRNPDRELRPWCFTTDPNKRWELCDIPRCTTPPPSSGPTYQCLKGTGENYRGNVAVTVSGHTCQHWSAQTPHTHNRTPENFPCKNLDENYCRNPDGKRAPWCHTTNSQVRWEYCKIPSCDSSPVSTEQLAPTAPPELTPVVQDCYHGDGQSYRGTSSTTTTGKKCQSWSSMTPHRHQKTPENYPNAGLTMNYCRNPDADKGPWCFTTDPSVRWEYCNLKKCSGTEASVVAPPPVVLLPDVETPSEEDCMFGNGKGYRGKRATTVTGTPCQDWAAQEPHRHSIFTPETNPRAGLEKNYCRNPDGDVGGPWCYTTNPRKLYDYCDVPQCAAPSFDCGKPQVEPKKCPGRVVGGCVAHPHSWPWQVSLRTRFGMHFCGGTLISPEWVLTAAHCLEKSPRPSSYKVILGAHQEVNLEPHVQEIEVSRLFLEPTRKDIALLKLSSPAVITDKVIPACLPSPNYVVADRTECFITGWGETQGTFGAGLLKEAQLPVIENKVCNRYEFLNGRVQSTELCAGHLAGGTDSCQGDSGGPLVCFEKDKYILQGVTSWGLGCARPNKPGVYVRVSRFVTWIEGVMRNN

B1: Ac-PRNK-cmk (peptide)
peptide: Ac-PRNK-CH2Cl
SMILES: CC(=O)N1CCC[C@H]1C(=O)N[C@@H](CCCNC(=N)N)C(=O)N[C@@H](CC(N)=O)C(=O)N[C@@H](CCCCN)C(=O)CCl
On to B1, for which the “Percent Inhibition, 10 µM Ac-PRNK-cmk” value in test [1] came to 95%; with Human thrombin, 0%; in test [2], 95%; with Factor Xa, 0%; in test [3] it was 0%; in test [4], 0%. Besides, the “Percent Inhibition, 10 µM Ac-PRNK-cmk” value with Human plasmin was found to be 0%. Also, the “Percent Inhibition, 100 µM Ac-PRNK-cmk” value in test [1] stood at 100%; with Human thrombin it was 0%; in test [2], 100%; in the test with Factor Xa it was 0%; in test [3] it was 0%; in test [4], 34%. In addition, the “Percent Inhibition, 100 µM Ac-PRNK-cmk” value with Human plasmin amounted to 63%.
